The text below walks through data of publication doi:10.1101/2023.04.10.536218.

The target in the experiment is major capsid protein VP1 of sheep polyomavirus (ShPyV) (sheep polyomavirus (ShPyV)). The experiment is described as follows: crystal structure.

Regarding “major capsid protein VP1 of sheep polyomavirus (ShPyV) (natural protein)”, the stoichiometry N (usually a count of units in the complex or per binding partner) was 5.
